The labels stand for the following.
B1: LexA-NSD1-(790–818) [not stated] / AAD-ERα-LBD-(282–595) [not stated] (parent complex)
chain 1: SSQNHIPIEPDYKFSTLLMMLKDMHDSKT
chain 2: SAGDMRAANLWPSPLMIKRSKKNSLALSLTADQMVSALLDAEPPILYSEYDPTRPFSEASMMGLLTNLADRELVHMINWAKRVPGFVDLTLHDQVHLLECAWLEILMIGLVWRSMEHPGKLLFAPNLLLDRNQGKCVEGMVEIFDMLLATSSRFRMMNLQGEEFVCLKSIILLNSGVYTFLSSTLKSLEEKDHIHRVLDKITDTLIHLMAKAGLTLQQQHQRLAQLLLILSHIRHMSNKGMEHLYSMKCKNVVPLYDLLLEMLDAHRLHAPTSRGGASVEETDQSHLATAGSTSSHSLQKYYITGEAEGFPATV

Variants of B1 are the subject of the assay. Briefly: yeast two-hybrid; + 1µM E2; read off a plot.
Turning to chain 1 SSQNHIPIEPDYKFATLLMMLKDMHDSKT, the response is ~0 nmol/mg/min.
Next, chain 1 SSQNHIPIEPDYAFSTLLMMLKDMHDSKT: ~2100 nmol/mg/min; chain 1 SSQNHIPIEPDAKFSTLLMMLKDMHDSKT: ~2000 nmol/mg/min.

The record behind these values is article PMC3834829, “A signature motif mediating selective interactions of BCL11A with the NR2E/F subfamily of orphan nuclear receptors” (Nucleic Acids Research, 2013).
